Test results as given in patent publication US20030004318A1.

Assays:
[1] = molecular target: tumor-associated glycoprotein TAG-72 (human); assay: ELISA on TAG-72-coated plates (FIGS. 7 and 8)
[2] = molecular target: tumor-associated glycoprotein TAG-72 (human); assay: TAG-72-coated plate assay with 125I goat anti-human IgG probe, Scatchard analysis; mean of 8 analyses

## humanized CC49 antibody CC49 HuVH/HuVK (ATCC CRL-12209)
[1]
  fold less binding than the chimeric MuVH/MuVK antibody: 2 fold
[2]
  Ka: 4.27e+09 M⁻¹
